Among the data in paper PMC9146136 (2022) are koff values, retold here.

In the experiment the target is anti-mTNFα 3B11 VNAR (soluble, purified). The experiment can be described thus: BLI.

Broadly, the koff is a measure of how fast the partners let go of each other. A high value points to fast dissociation.

B1: extracellular domain of mTNFα (mTNFα ECD, 77-235aa) (domain or fragment)
chain: TLTLRSSSQNSSDKPVAHVVANHQVEEQLEWLSQRANALLANGMDLKDNQLVVPADGLYLVYSQVLFKGQGCPDYVLLTHTVSRFAISYQEKVNLLSAVKSPCPKDTPEGAELKPWYEPIYLGGVFQLEKGDQLSAEVNLPKYLDFAESGQVYFGVIAL
modifications: biotin (biotin-NHS labeling reaction) in the BLI assay only
Consider B1, for which the koff was 2.69e-05 s⁻¹.
